Test results taken from patent CN117466995A (YIDAO BIOTECHNOLOGY SUZHOU CO LTD, dated 2024).
Values joined by “and” are separate entries in the source; they are usually repeats but may differ in a detail not shown here. Equal values may be shown once.

T1: HPV45型衣壳蛋白L1病毒样颗粒(VLP)抗原 (HPV 45型) (UniProt P36741)
T1 sequence: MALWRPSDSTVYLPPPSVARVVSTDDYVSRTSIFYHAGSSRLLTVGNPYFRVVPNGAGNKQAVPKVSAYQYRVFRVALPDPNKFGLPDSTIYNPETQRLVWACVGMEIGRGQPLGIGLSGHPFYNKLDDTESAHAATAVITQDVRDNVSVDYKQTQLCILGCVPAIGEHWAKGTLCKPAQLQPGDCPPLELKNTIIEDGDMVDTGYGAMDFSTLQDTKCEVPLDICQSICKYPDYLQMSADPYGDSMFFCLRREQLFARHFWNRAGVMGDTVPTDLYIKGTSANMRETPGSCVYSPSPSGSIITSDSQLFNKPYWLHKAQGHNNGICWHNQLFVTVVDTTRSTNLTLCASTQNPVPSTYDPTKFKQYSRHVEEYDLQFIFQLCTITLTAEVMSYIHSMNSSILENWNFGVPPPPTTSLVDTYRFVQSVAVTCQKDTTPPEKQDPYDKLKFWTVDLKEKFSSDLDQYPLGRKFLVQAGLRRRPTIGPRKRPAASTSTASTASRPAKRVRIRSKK

T2: HPV 33 VLP抗原 (HPV 33, UniProt P06416 1-499)
T2 sequence: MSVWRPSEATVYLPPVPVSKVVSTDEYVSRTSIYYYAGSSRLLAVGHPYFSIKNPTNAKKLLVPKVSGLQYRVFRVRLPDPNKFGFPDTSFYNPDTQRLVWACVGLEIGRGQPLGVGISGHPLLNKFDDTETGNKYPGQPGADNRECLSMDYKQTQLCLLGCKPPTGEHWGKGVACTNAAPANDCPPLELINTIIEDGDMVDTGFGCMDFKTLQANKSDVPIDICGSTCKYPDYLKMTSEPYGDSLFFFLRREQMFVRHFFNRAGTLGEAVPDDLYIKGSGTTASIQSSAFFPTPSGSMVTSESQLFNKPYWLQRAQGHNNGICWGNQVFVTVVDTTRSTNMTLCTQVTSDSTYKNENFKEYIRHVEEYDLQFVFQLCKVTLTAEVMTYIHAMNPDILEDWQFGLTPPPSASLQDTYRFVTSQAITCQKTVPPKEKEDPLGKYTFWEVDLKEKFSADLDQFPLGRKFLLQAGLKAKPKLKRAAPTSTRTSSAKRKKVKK

T3: HPV 18 VLP抗原 (HPV 18, UniProt P06794 62-568)
T3 sequence: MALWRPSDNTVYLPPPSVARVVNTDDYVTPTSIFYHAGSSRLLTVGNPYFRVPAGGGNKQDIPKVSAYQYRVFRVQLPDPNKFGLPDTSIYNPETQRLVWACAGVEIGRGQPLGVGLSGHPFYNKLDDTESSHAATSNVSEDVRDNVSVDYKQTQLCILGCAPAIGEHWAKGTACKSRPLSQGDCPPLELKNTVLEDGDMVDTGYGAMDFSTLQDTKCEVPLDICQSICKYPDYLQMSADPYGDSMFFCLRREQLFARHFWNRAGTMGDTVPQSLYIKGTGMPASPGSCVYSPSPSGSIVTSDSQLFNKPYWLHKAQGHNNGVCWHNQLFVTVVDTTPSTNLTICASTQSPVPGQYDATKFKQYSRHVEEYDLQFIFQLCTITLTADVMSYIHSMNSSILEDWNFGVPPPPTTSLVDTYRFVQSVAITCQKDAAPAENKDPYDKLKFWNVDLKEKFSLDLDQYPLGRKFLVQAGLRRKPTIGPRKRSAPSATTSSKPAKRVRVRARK

B1: 杂交瘤细胞株7A5(CGMCC NO:45706)分泌的鼠源单克隆抗体 (antibody, V domains shown)
VH: QPGAELVKPGASVKLSCKASGYTFTSYWMHWVKQRPGQGLEWIGEINPSNGHTNYNEKFKSKATLTVDKSSSTAYMQLSSLTSEDSAVYYCAPCYGSSYDYYAMDYWGQGTSVTVSS
VL: DIVLTQSPASLAVSLGQRATISCRASQSVSTSSYSYMHWYQQKPGQPPKLLIKYASNLESGVPARFSGSGSGTDFTLNIHPVEEEDTATYYCQHSWEIPYTFGGGTKLEIK
notes: also called 鼠单抗7A5; 抗体7A5
B2: 杂交瘤细胞株11G1(CGMCC NO:45707)分泌的鼠源单克隆抗体 (antibody, V domains shown)
VH: QVQLQQPGAELVKPGASVKLSCKASGYTFTSYWMHWVKRRPGQGLEWIGEINPSNGLTNYNEKFKSKGTLTVDKSSSAAFMHLSSLTSEDSAVYYCARFHGSDLYAMDYWGQGTSVTVSS
VL: B1 VL
notes: also called 鼠单抗11G1; 抗体11G1

Key:
[1] = molecular target: T1, HPV45型衣壳蛋白L1病毒样颗粒(VLP)抗原 (HPV 45型); assay: sandwich ELISA, rabbit pAb R163 capture 1:500, mAb 1:20000; antigen 13.3 ug/ml, 2.5-fold series, step 1
[2] = molecular target: T1, HPV45型衣壳蛋白L1病毒样颗粒(VLP)抗原 (HPV 45型); assay: sandwich ELISA, rabbit pAb R163 capture 1:500, mAb 1:20000; antigen 13.3 ug/ml, 2.5-fold series, step 3
[3] = molecular target: T1, HPV45型衣壳蛋白L1病毒样颗粒(VLP)抗原 (HPV 45型); assay: sandwich ELISA, rabbit pAb R163 capture 1:500, mAb 1:20000; antigen 13.3 ug/ml, 2.5-fold series, step 2
[4] = molecular target: T1, HPV45型衣壳蛋白L1病毒样颗粒(VLP)抗原 (HPV 45型); assay: sandwich ELISA, rabbit pAb R163 capture 1:500, mAb 1:20000; antigen 13.3 ug/ml, 2.5-fold series, step 10
[5] = molecular target: T1, HPV45型衣壳蛋白L1病毒样颗粒(VLP)抗原 (HPV 45型); assay: direct ELISA on coated HPV45 VLP, purified antibody titrated; positive if OD > 2.1 x NC
HPV 33 VLP抗原 = molecular target: T2, HPV 33 VLP抗原; assay: direct ELISA on coated VLP antigens
HPV 18 VLP抗原 = molecular target: T3, HPV 18 VLP抗原; assay: direct ELISA on coated VLP antigens
[6] = molecular target: T1, HPV45型衣壳蛋白L1病毒样颗粒(VLP)抗原 (HPV 45型); assay: sandwich ELISA, rabbit pAb R163 capture 1:500, mAb 1:20000; antigen 13.3 ug/ml, 2.5-fold series, step 11
[7] = molecular target: T1, HPV45型衣壳蛋白L1病毒样颗粒(VLP)抗原 (HPV 45型); assay: sandwich ELISA, rabbit pAb R163 capture 1:500, mAb 1:20000; column 12, antigen amount not stated (only 11 dilutions described)
[8] = molecular target: T1, HPV45型衣壳蛋白L1病毒样颗粒(VLP)抗原 (HPV 45型); assay: sandwich ELISA, rabbit pAb R163 capture 1:500, mAb 1:20000; antigen 13.3 ug/ml, 2.5-fold series, step 5

Binder	OD [1]	OD [2]	OD [3]	OD [4]	灵敏度 [5] [µg/mL]	binding result (HPV 33 VLP抗原)	binding result (HPV 18 VLP抗原)	OD [6]	OD [7]	OD [8]
B1	3.12 OD	2.9 OD and 2.78 OD	3.05 OD and 3 OD	0.068 OD and 0.072 OD	0.0005	no binding	no binding	0.066 OD and 0.056 OD	0.067 OD and 0.064 OD	1.54 OD and 1.56 OD
B2	3.1 OD and 3.01 OD	2.67 OD and 2.65 OD	3.03 OD and 3.09 OD	0.062 OD and 0.051 OD	0.0005	no binding	no binding	0.05 OD and 0.046 OD	0.045 OD and 0.05 OD	0.922 OD and 1.02 OD
